In PMC9616769:
Ends that are not written are not given here. * marks the point of attachment. pNA = O=[N+]([O-])c1ccc(N*)cc1

Target: NT-mini (catalytically competent fragment of human neurotrypsin, Gly497-Leu875) (human)

Row | Binder | Km of cleavage of the pNa peptide by NT-mini (Michaelis-Menten; 1 µM enzyme, 37 °C, 5 mM CaCl2, GF buffer pH 8) [mM]
1 | GLVEK-pNA (also: termed β-peptide, meaning not given here) [β-(5 mer) peptide with a C-terminal p-nitroaniline] | 17.2
2 | KGLVEK-pNA (also: termed β-peptide, meaning not given here) [β-peptide (6-mer, KGLVEK) with a C-terminal p-nitroaniline] | 6.16
